Measured values published in paper PMC5623693, “Rb‐independent E2F3 promotes cell proliferation and alters expression of genes involved in metabolism and inflammation” (FEBS Open Bio, 2017).
No end group written: not given here. *: point of attachment. 5‑TAMRA = CN(C)c1ccc2c(-c3ccc(C(=O)*)cc3C(=O)[O-])c3ccc(N(C)C)cc3[o+]c2c1

T1: GST-pRb (aa379-928) (UniProt P06400 379-928)
T1 construct: retinoblastoma protein pRb, residues 379-928
T1 sequence (looked up): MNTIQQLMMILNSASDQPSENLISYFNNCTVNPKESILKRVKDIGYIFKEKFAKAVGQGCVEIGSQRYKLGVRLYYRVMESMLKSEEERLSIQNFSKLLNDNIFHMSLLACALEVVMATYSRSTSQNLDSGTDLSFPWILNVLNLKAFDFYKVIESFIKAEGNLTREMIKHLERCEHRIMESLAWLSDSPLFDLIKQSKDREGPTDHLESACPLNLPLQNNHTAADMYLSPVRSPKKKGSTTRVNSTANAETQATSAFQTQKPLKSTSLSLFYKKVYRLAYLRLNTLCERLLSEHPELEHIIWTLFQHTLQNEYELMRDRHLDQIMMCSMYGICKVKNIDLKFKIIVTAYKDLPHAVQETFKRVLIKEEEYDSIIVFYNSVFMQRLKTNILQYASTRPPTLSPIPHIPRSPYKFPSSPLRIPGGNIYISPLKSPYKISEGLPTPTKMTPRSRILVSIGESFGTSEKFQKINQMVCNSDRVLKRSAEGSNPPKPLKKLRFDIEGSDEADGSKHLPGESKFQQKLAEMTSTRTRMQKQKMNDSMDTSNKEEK


Assays:
Assay in all cases: fluorescence polarisation; TAMRA-labeled peptide (100 nM stock, 1 uL in 10 uL final) with purified protein serially diluted 1:2; 20 mM HEPES, 100 mM KCl, 0.1% Tween-20, 5 mM DTT, pH 7.8; 20 min in the dark at room temperature; Kd by Michaelis-Menten equation, least-squares nonlinear regression
[1] = molecular target: Tamra-labeled E2F1-mutant peptide (L415Q) (human)
[2] = molecular target: Tamra-labeled E2F1 WT peptide (human)
GST-pRb (aa379-928) = molecular target: T1, GST-pRb (aa379-928); conditions: both partners purified

Row | Kd [1] [µM] | Kd [2] [µM] | Kd (GST-pRb (aa379-928)) [µM] | Molecule
1 | 200 | 7 |  | HIS-p107 (aa379-1104) (domain or fragment)
2 |  |  | ~3 | {5‑TAMRA}-EALDYHFGLEEGEGIRDLFDCDFG (L415 is the ninth letter; also called WT E2F1 peptide; E2F1 C-terminal peptide; source: synthetic peptide (United BioSystems)) [Tamra-labeled E2F1 WT peptide]
3 |  |  | 20 | {5‑TAMRA}-EALDYHFGQEEGEGIRDLFDCDFG (also called E2F1 L415Q peptide; LQ; source: synthetic peptide (Peptide 2.0)) [Tamra-labeled E2F1-mutant peptide (L415Q)]
